The target of the assay is T1, human APJ receptor (hAPJ) (human, UniProt P35414 1-380).
T1 sequence (looked up): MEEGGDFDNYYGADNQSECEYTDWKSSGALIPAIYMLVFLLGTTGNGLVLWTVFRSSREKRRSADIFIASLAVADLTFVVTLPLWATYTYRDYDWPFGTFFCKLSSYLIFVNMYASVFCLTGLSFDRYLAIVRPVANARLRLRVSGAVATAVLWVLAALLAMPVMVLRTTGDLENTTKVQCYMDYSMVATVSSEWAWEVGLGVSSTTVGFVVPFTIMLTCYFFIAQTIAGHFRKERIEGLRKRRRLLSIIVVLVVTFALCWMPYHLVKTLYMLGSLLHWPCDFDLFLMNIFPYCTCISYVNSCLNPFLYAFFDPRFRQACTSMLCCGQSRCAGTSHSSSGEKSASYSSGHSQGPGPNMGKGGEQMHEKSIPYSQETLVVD
In words: cell-based or functional assay.

The values below come from US20160108091A1 (Novartis, published 2016).

Bridges are numbered along the chain shown (N, C = ends). [ ]: non-standard residue; d: D form. 2Nal = N[C@@H](Cc1ccc2ccccc2c1)C(=O)O; NMeF = CN[C@@H](Cc1ccccc1)C(=O)O; pGlu = O=C1CC[C@@H](C(=O)O)N1; d(hCys) = N[C@H](CCS)C(=O)O; dNle = CCCC[C@@H](N)C(=O)O; hCys = N[C@@H](CCS)C(=O)O; Nle = CCCC[C@H](N)C(=O)O; dAbu = CC[C@@H](N)C(=O)O

B1: pE-R-P-C*-L-S-C*-K-G-P-Nle-NH(Phenethyl) (peptide)
peptide: ERPCLSCKGPL
modifications: pE at 1; disulfide C4-C7; Nle at 11 with C-terminal NH(Phenethyl) amide
Consider B1, for which the “hAPJ Ca^2+ Flux EC50” value was found to be 0.5 nM.

B2: pE-R-C*-R-L-S-(D-hC)*-K-G-P-f-a-f-OH (peptide)
peptide: [pGlu]RCRLS[d(hCys)]KGP[dF][dA][dF]-OH
modifications: disulfide 3-7
SMILES: CC(C)C[C@@H]1NC(=O)[C@H](CCCNC(=N)N)NC(=O)[C@@H](NC(=O)[C@H](CCCNC(=N)N)NC(=O)[C@@H]2CCC(=O)N2)CSSCC[C@H](C(=O)N[C@@H](CCCCN)C(=O)NCC(=O)N2CCC[C@H]2C(=O)N[C@H](Cc2ccccc2)C(=O)N[C@H](C)C(=O)N[C@H](Cc2ccccc2)C(=O)O)NC(=O)[C@H](CO)NC1=O
Consider B2, for which the “hAPJ Ca^2+ Flux EC50” value was determined as 2290 nM.

B3: pE-R-P-C*-L-S-C*-K-G-P-Nle-P-F-OH (peptide)
peptide: ERPCLSCKGPLPF
modifications: pE at 1; disulfide C4-C7; Nle at 11; free C-terminal acid
Take B3: the “hAPJ Ca^2+ Flux EC50” value came out at 3.1 nM.

B4: Ac-C*-R-P-R-L-S-hC*-K-G-P-Nle-P-F-OH (peptide)
peptide: Ac-CRPRLS[hCys]KGP[Nle]PF-OH
modifications: disulfide 1-7
SMILES: CCCC[C@H](NC(=O)[C@@H]1CCCN1C(=O)CNC(=O)[C@H](CCCCN)NC(=O)[C@@H]1CCSSC[C@H](NC(C)=O)C(=O)N[C@@H](CCCNC(=N)N)C(=O)N2CCC[C@H]2C(=O)N[C@@H](CCCNC(=N)N)C(=O)N[C@@H](CC(C)C)C(=O)N[C@@H](CO)C(=O)N1)C(=O)N1CCC[C@H]1C(=O)N[C@@H](Cc1ccccc1)C(=O)O
As to B4, the “hAPJ Ca^2+ Flux EC50” value worked out at 21.4 nM.

B5: H-R-P-C*-L-S-C*-K-(D-Nle)-a-f-OH (peptide)
peptide: H-RPCLSCK[dNle][dA][dF]-OH
modifications: disulfide 3-6
SMILES: CCCC[C@@H](NC(=O)[C@H](CCCCN)NC(=O)[C@@H]1CSSC[C@H](NC(=O)[C@@H]2CCCN2C(=O)[C@@H](N)CCCNC(=N)N)C(=O)N[C@@H](CC(C)C)C(=O)N[C@@H](CO)C(=O)N1)C(=O)N[C@H](C)C(=O)N[C@H](Cc1ccccc1)C(=O)O
Turning to B5, the “hAPJ Ca^2+ Flux EC50” value came to 66.7 nM.

B6: pE-R-P-hC*-L-S-C*-K-G-P-f-a-f-OH (peptide)
peptide: ERPCLSCKGPFAF
modifications: pE at 1; hC (L-homocysteine) at 4; disulfide hC4-C7; D-Phe (f) at 11; D-Ala (a) at 12; D-Phe (f) at 13; free C-terminal acid
With B6, the “hAPJ Ca^2+ Flux EC50” value is 4.2 nM.

B7: pE-R-P-C*-L-S-C*-K-G-P-Nle-P-(N-Me)F-OH (peptide)
peptide: ERPCLSCKGPLPF
modifications: pE at 1; disulfide C4-C7; Nle at 11; (N-Me)F at 13; free C-terminal acid
For B7, the “hAPJ Ca^2+ Flux EC50” value is 4.2 nM.

B8: Ac-C*-R-P-R-L-S-C*-K-G-P-Nle-P-NMe(Phenethyl) (peptide)
peptide: Ac-CRPRLSCKGP[Nle]P-{NMe(Phenethyl)}
modifications: disulfide 1-7
For the molecule B8, the “hAPJ Ca^2+ Flux EC50” value stood at 23.4 nM.

B9: pE-R-P-C*-L-S-C*-K-G-P-(D-Nle)-f-OH (peptide)
peptide: ERPCLSCKGPLF
modifications: pE at 1; disulfide C4-C7; D-Nle at 11; D-Phe (f) at 12; free C-terminal acid
As to B9, the “hAPJ Ca^2+ Flux EC50” value was 0.6 nM.

B10: Ac-hC*-R-P-R-L-S-hC*-K-G-P-Nle-P-F-OH (peptide)
peptide: Ac-[hCys]RPRLS[hCys]KGP[Nle]PF-OH
modifications: disulfide 1-7
SMILES: CCCC[C@H](NC(=O)[C@@H]1CCCN1C(=O)CNC(=O)[C@H](CCCCN)NC(=O)[C@@H]1CCSSCC[C@H](NC(C)=O)C(=O)N[C@@H](CCCNC(=N)N)C(=O)N2CCC[C@H]2C(=O)N[C@@H](CCCNC(=N)N)C(=O)N[C@@H](CC(C)C)C(=O)N[C@@H](CO)C(=O)N1)C(=O)N1CCC[C@H]1C(=O)N[C@@H](Cc1ccccc1)C(=O)O
With B10, the “hAPJ Ca^2+ Flux EC50” value came to 11.8 nM.

B11: pE-R-P-(D-hC)*-L-S-hC*-K-G-P-(D-Nle)-(D-Nva)-f-OH (peptide)
peptide: ERPCLSCKGPLVF
modifications: pE at 1; D-hC at 4; hC at 7; disulfide 4-7; D-Nle at 11; D-Nva (D-norvaline) at 12; D-Phe (f) at 13; free C-terminal acid
For B11, the “hAPJ Ca^2+ Flux EC50” value is 175 nM.

B12: Ac-C*-R-P-R-L-S-C*-K-G-P-Nle-P-(N-Me)F-OH (peptide)
peptide: Ac-CRPRLSCKGP[Nle]P[NMeF]-OH
modifications: disulfide 1-7
Take B12: the “hAPJ Ca^2+ Flux EC50” value came to 64.5 nM.

B13: pE-R-P-C*-L-S-C*-K-G-P-Nle-P-NH(Phenethyl) (peptide)
peptide: ERPCLSCKGPLP
modifications: pE at 1; disulfide C4-C7; Nle at 11; C-terminal NH(Phenethyl) amide on P12
With B13, the “hAPJ Ca^2+ Flux EC50” value was 0.4 nM.

B14: pE-R-P-C*-L-S-C*-K-G-P-(D-Nle)-NH(Phenethyl) (peptide)
peptide: ERPCLSCKGPL
modifications: pE at 1; disulfide C4-C7; D-Nle at 11 with C-terminal NH(Phenethyl) amide
For the molecule B14, the “hAPJ Ca^2+ Flux EC50” value is 3 nM.

B15: pE-R-P-C*-L-S-C*-K-G-P-(D-Nle)-a-f-OH (peptide)
peptide: ERPCLSCKGPLAF
modifications: pE at 1; disulfide C4-C7; D-Nle at 11; D-Ala (a) at 12; D-Phe (f) at 13; free C-terminal acid
Consider B15, for which the “hAPJ Ca^2+ Flux EC50” value turned out to be 1.9 nM.

B16: pE-R-c*-R-L-S-C*-K-G-P-(D-Nle)-(D-abu)-f-OH (peptide)
peptide: [pGlu]R[dC]RLSCKGP[dNle][dAbu][dF]-OH
modifications: disulfide 3-7
SMILES: CCCC[C@@H](NC(=O)[C@@H]1CCCN1C(=O)CNC(=O)[C@H](CCCCN)NC(=O)[C@@H]1CSSC[C@@H](NC(=O)[C@H](CCCNC(=N)N)NC(=O)[C@@H]2CCC(=O)N2)C(=O)N[C@@H](CCCNC(=N)N)C(=O)N[C@@H](CC(C)C)C(=O)N[C@@H](CO)C(=O)N1)C(=O)N[C@H](CC)C(=O)N[C@H](Cc1ccccc1)C(=O)O
In the case of B16, the “hAPJ Ca^2+ Flux EC50” value was determined as 86.5 nM.

B17: pE-R-P-C*-L-S-C*-F-G-P-(D-Nle)-a-f-OH (peptide)
peptide: [pGlu]RPCLSCFGP[dNle][dA][dF]-OH
modifications: disulfide 4-7
SMILES: CCCC[C@@H](NC(=O)[C@@H]1CCCN1C(=O)CNC(=O)[C@H](Cc1ccccc1)NC(=O)[C@@H]1CSSC[C@H](NC(=O)[C@@H]2CCCN2C(=O)[C@H](CCCNC(=N)N)NC(=O)[C@@H]2CCC(=O)N2)C(=O)N[C@@H](CC(C)C)C(=O)N[C@@H](CO)C(=O)N1)C(=O)N[C@H](C)C(=O)N[C@H](Cc1ccccc1)C(=O)O
As to B17, the “hAPJ Ca^2+ Flux EC50” value was found to be 2 nM.

B18: Ac-C*-R-P-R-L-S-C*-K-G-P-Nle-P-NH2 (peptide)
peptide: Ac-CRPRLSCKGP[Nle]P-NH2
modifications: disulfide 1-7
SMILES: CCCC[C@H](NC(=O)[C@@H]1CCCN1C(=O)CNC(=O)[C@H](CCCCN)NC(=O)[C@@H]1CSSC[C@H](NC(C)=O)C(=O)N[C@@H](CCCNC(=N)N)C(=O)N2CCC[C@H]2C(=O)N[C@@H](CCCNC(=N)N)C(=O)N[C@@H](CC(C)C)C(=O)N[C@@H](CO)C(=O)N1)C(=O)N1CCC[C@H]1C(N)=O
On to B18, for which the “hAPJ Ca^2+ Flux EC50” value came to 74.6 nM.

B19: Ac-C*-R-P-R-L-S-C*-K-G-P-Nle-P-a-OH (peptide)
peptide: Ac-CRPRLSCKGP[Nle]P[dA]-OH
modifications: disulfide 1-7
SMILES: CCCC[C@H](NC(=O)[C@@H]1CCCN1C(=O)CNC(=O)[C@H](CCCCN)NC(=O)[C@@H]1CSSC[C@H](NC(C)=O)C(=O)N[C@@H](CCCNC(=N)N)C(=O)N2CCC[C@H]2C(=O)N[C@@H](CCCNC(=N)N)C(=O)N[C@@H](CC(C)C)C(=O)N[C@@H](CO)C(=O)N1)C(=O)N1CCC[C@H]1C(=O)N[C@H](C)C(=O)O
Turning to B19, the “hAPJ Ca^2+ Flux EC50” value is 13.1 nM.

B20: Ac-C*-R-P-R-L-S-C*-K-G-P-Nle-P-Nal-OH (peptide)
peptide: Ac-CRPRLSCKGP[Nle]P[2Nal]-OH
modifications: disulfide 1-7
For the molecule B20, the “hAPJ Ca^2+ Flux EC50” value worked out at 1.6 nM.

B21: Apelin cyclic peptide conjugated to a fatty acid via a BCN-PEG linker: … (peptide)
peptide: ERPCLSCKGPL
modifications: pE at 1; disulfide C4-C7; Lys 8 N6 carries the BCN carbamate, joined by click reaction to azido-dPEG23-amide of docos-21-ene-1,11,11-tricarboxylic acid (fatty acid-PEG linker, compound A); D-Nle at 11 with C-terminal NH(Phenethyl) amide
Take B21: the “hAPJ Ca^2+ Flux EC50” value came to 2480 nM.

B22: pE-R-P-c*-L-S-(D-hC)*-K-G-P-(D-Nle)-a-y-OH (peptide)
peptide: ERPCLSCKGPLAY
modifications: pE at 1; D-Cys (c) at 4; D-hC at 7; disulfide 4-7; D-Nle at 11; D-Ala (a) at 12; D-Tyr (y) at 13; free C-terminal acid
Regarding B22, the “hAPJ Ca^2+ Flux EC50” value worked out at 937 nM.
